Positions count from the first letter of the chain named.
B1: P5G10 (human anti-PscF monoclonal antibody) (antibody, V domains shown)
VH: VQLQQWGAGLLKPSETLSLTCAVYGGSFSDYYWTWIRQAPGKGLEWIGENRHRGTTNYNPSLKGRVTISVDTSKNQFTLKVTSVTAADTAVYFCARQRGSSGGAPSGLDVWGQGTTVTVSS
VL: QSVLTQPPSASGTPGQRVTISCSGASSNIGTNYVFWYQQFPGTAPKLLIYRNGHRPSGVPDRFSGSKSGASASLAISGLRSDDEADYYCATWDDSLSSQVFGGGTKLTVL
notes: also called P5G10 mAb
B2: P3G7 (antibody, V domains shown)
VH: EVQLVESGGGLVQPGRSLTLSCAVTGFIVRDYHIDWVRQAPGKGLEWVGRARNKASRYRVVYAASLKDRFTIIRDDSKNSIYLRMSSLKTEDAAMYFCVRVGHYDTQGYALDDYDVWGQGTAVTVSS
VL: QSVLTQSPSVSAAPGQRVTIHCFGSSSTIGSNQLSWYQQVPGTAPKLLIYDSDKRPSGIPDRFSASKSGTSGTLDISGLQSGDEADYYCETWDDTLKAVVFGGGTKLTVL
B3: P1B7 (antibody, V domains shown)
VH: EVQLLESGGGLVQPGGSLRLSCAASGFTFKSYAMSWVRQAPGKGLEWVSAISGSGGSKYYADSVKGRFTISRDDSKNTLYLQMNSLRVEDTAVYYCAKPLLDSVYCLESWGQGTLVTVSS
VL: DIQMTQSPSSLSASVGDRVTITCRASQDISNYLSWYQQRPGKAPKSLIYAAFRLQSGVPSKFSGSGSGTDFTLTISSLQPEDFATYYCQQYYTYPPTFGQGTKLEIK
B4: P5D5 (antibody, V domains shown)
VH: B3 VH with K30N, S31N, N77S, T78R, V93L, A97T, D102E, C106Y
VL: B3 VL with D28G, Y32H, S34A, Y36F, R39K, F52S, K61R, T85S, T93S, T97A
B5: P3G2 (antibody, V domains shown)
VH: QVQLQESGPGLVKPSETLSLTCSVSGGSVASGDFYWSWVRQPAGTGLEWIGRVSTSGSTNCNPSLKSRVTISIDTSKNEFSLRLPSVTAADTAVYYCARYRPGSGGLGVYYDYWGQGILVTVSS
VL: QSALTQPPSASGSPGQSVTISCTGASSDIGGYNYVSWYQQHPGRAPRLMIYEVHNRPSGVPDRFSGSKSGNTASLTVSGLQAEDEADYYCMSYAGGNILLFGGGTKLTVL
B6: P1D7 (antibody, V domains shown)
VH: EVQLLESGGGLVQPGGSLRLSCAASGFTFTSYAMSWVRQAPGKGLEWVSALSNSGDSTYYADSVKGRFTISRDNSKNTLYLQMHSLRVEDTAVYYCAKDREGDYGDYVFDYWGQGTLVTVSS
VL: SYVLTQPPSVSVAPGQTARIPCGGNNIGRKSVHWYQQKPGQAPVLVVYDDSDRPSGIPERFSGSNSGNTATLTISRVEAGDEADYYCQVWDSSDDLVVFGGGTTLTVL
B7: P1D5 (antibody, V domains shown)
VH: QVQLHESGPGLVEPSQTLTLTCTVSGGSTDSDGVYWTWIRQPAGKGLEWIGRIDNRGTYSYNPSLRSRITISEEPSQNQFSLRVRSLTAADAGVYYCAREVRRLQGRRYYYYGTDVWGPGTTVTVSS
VL: DIVMTQSPLSLSVTLGESASISCRSSQSLLHTNAYNYLDWYLQRPGQSPQLLIYLSSVRASGVPDRFSGRGSGTDFTLKISRVEAEDVGIYFCMQALEMPFTFGPGTKVDIK

Target: T1, PscF from strain PAO1 (Pseudomonas aeruginosa PAO1, UniProt P95434)
T1 construct: also called recombinant PscF; PscF-His
T1 sequence (P95434 whole entry): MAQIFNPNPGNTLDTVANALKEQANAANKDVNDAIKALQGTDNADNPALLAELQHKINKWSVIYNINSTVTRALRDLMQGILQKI
Experiment: ELISA; competition ELISA; serial dilutions of competitor mAbs on antigen-coated wells for 30 min, then biotinylated mAbs at their EC70; detected with AP-conjugated streptavidin
Conditions: both partners purified

Binder | binding result
B1 | binds

Target: T1, PscF from strain PAO1
Experiment: not given
Conditions: not given

Binder | binding result
B2 | binds
B3 | binds
B4 | binds
B5 | binds
B6 | binds
B7 | binds

Source: paper PMC12912723 (eLife, 2026)
